In patent US20060041111A1 (published 2006):

Tests used:
[1] = molecular target: GST-Src SH3 domain (UniProt P12931 84-145); experiment: GST pull-down, lysate in SDS containing RIPA buffer
Description: (§1) In transient expression studies, with epitope tagged DOS constructs in both 293T cell and COS cells, a protein of the expected size is readily detected after cell lysis with buffers containing detergents, such as RIPA.
(§2) After incubating epitope tagged DOS lysates in SDS containing RIPA buffer with beads carrying GST-Crk-N terminal SH3 domain, DOS+SSB and DOS−SSB was “pulled down”. […] No binding to DOS−SSB was observed. […] The proline rich, C terminus of DOS engages with Src and Crk and the loss of Crk binding is seen in human cancer. Furthermore, no binding to SH3 domain of Abl and Crk-C terminus was observed.

[2] = molecular target: T1, DOS+SSB P>L (DOS+SSB with the proline to leucine mutation at amino acid 1718), epitope tagged (human, UniProt Q8N1I0 1-1966); experiment: as above
T1 construct: Used as lysate of transfected cells; also called DOS+SSB with proline mutation; DOS with the proline mutation
Description: as §1, §2

[3] = molecular target: T2, DOS+SSB (human DOS protein of 1966 amino acids, with Src SH3 domain binding site), epitope tagged (human, UniProt Q8N1I0 1-1966); experiment: pull-down with SH3 domains
T2 construct: Full-length isoform cloned in pcDNA3.1, transiently expressed in 293T or COS cells and used as cell lysate in RIPA buffer; also called DOCK 3; Deleted in Osteosarcoma
Description: as §1, §2

B1: DOS-SSB (alternatively spliced human DOS protein of 1928 amino acids, without Src SH3 domain binding site), epitope tagged (other, not shown: small tags and cut ends)
chain: MWIPTEHEKYGVVIASFRGTVPYGLSLEIGDTVQILEKCDGWYRGFALKNPNIKGIFPSSYVHLKNACVKNKGQFEMVIPTEDSVITEMTSTLRDWGTMWKQLYVRNEGDLFHRLWHIMNEILDLRRQVLVGHLTHDRMKDVKRHITARLDWGNEQLGLDLVPRKEYAMVDPEDISITELYRLMEHRHRKKDTPVQASSHHLFVQMKSLMCSNLGEELEVIFSLFDSKENRPISERFFLRLNRNGLPKAPDKPERHCSLFVDLGSSELRKDIYITVHIIRIGRMGAGEKKNACSVQYRRPFGCAVLSIADLLTGETKDDLILKVYMCNTESEWYQIHENIIKKLNARYNLTGSNAGLAVSLQLLHGDIEQIRREYSSVFSHGVSITRKLGFSNIIMPGEMRNDLYITIERGEFEKGGKSVARNVEVTMFIVDSSGQTLKDFISFGSGEPPASEYHSFVLYHNNSPRWSELLKLPIPVDKFRGAHIRFEFRHCSTKEKGEKKLFGFSFVPLMQEDGRTLPDGTHELIVHKCEENTNLQDTTRYLKLPFSKGIFLGNNNQAMKATKESFCITSFLCSTKLTQNGDMLDLLKWRTHPDKITGCLSKLKEIDGSEIVKFLQDTLDTLFGILDENSQKYGSKVFDSLVHIINLLQDSKFHHFKPVMDTYIESHFAGALAYRDLIKVLKWYVDRITEAERQEHIQEVLKAQEYIFKYIVQSRRLFSLATGGQNEEEFRCCIQELLMSVRFFLSQESKGSGALSQSQAVFLSSFPAVYSELLKLFDVREVANLVQDTLGSLPTILHVDDSLQAIKLQCIGKTVESQLYTNPDSRYILLPVVLHHLHIHLQEQKDLIMCARILSNVFCLIKKNSSEKSVLEEIDVIVASLLDILLRTILEITSRPQPSSSAMRFQFQDVTGEFVACLLSLLRQMTDRHYQQLLDSFNTKEELRDFLLQIFTVFRILIRPEMFPKDWTVMRLVANNVIITTVLYLSDALRKNFLNENFDYKIWDSYFYLAVIFINQLCLQLEMFTPSKKKKVLEKYGDMRVTMGCEIFSMWQNLGEHKLHFIPALIGPFLEVTLIPQPGLRNVMIPIFHDMMDWEQRRSGNFKQVEAKLIDKLDSLMSEGKGDETYRELFNSILLKKIERETWRESGVSLIATVTRLMERLLDYRDCMKMGEVDGKKIGCTVSLLNFYKTELNKEEMYIRYIHKLYDLHLKAQNFTEAAYTLLLYDELLEWSDRPLREFLTYPMQTEWQRKEHLHLTIIQNFDRGKCWENGIILCRKIAEQYESYYDYRNLSKMRMMEASLYDKIMDQQRLEPEFFRVGFYGKKFPFFLRNKEFVCRGHDYERLEAFQQRMLNEFPHAIAMQHANQPDETIFQAEAQYLQIYAVTPIPESQEVLQREGVPDNIKSFYKVNHIWKFRYDRPFHKGTKDKENEFKSLWVERTSLYLVQSLPGISRWFEVEKREVVEMSPLENAIEVLENKNQQLKTLISQCQTRQMQNINPLTMCLNGVIDAAVNGGVSRYQEAFFVKEYILSHPEDGEKIARLRELMLEQAQILEFGLAVHEKFVPQDMRPLHKKLVDQFFVMKSSLGIQEFSACMQASPVHFPNGSPRVCRNSAPASVSPDGTRVIPRRSPLSYPAVNRYSSSSLSSQASAEVSNITGQSESSDEVFNMQPSPSTSSLSSTHSASPNVTSSAPSSARASPLLSDKHKHSRENSCLSPRERPCSAIYPTPVEPSQRMLFNHIGDGALPRSDPNLSAPEKASPARHTTSVSPSPAGRSPLKGSVQSFTPSPVEYHSPGLISNSPVLSGSYSSGISSLSRCSTSETSGFENQVNEQSAPLPVPVPVPVPSYGGEEPVRKESKTPPPYSVYERTLRRPVPLPHSLSIPVTSEPPALPPKPLAARSSHLENGARRTDPGPRPRPLPRKVSQL
notes: Used as lysate of transfected cells
- binding result [1]: no binding

B2: GST-Crk-N terminal SH3 domain (other, UniProt P46108 132-192, looked up)
chain: EEAEYVRALFDFNGNDEEDLPFKKGDILRIRDKPEEQWWNAEDSEGKRGMIPVPYVEKYRP
notes: domain: N terminal SH3 domain; GST fusion on beads for the pull-down; also called adaptor protein Crk; not shown: glutathione S-transferase (GST) fusion partner
- binding result [2]: no binding

B3: SH3 domain of Crk-C terminus (other, UniProt P46108 235-296, looked up)
chain: NGPIYARVIQKRVPNAYDKTALALEVGELVKVTKINVSGQWEGECNGKRGHFPFTHVRLLDQ
notes: domain: SH3 domain of Crk-C terminus
- binding result [3]: no binding
